Patent publication US20030166873A1 (Genentech, published 2003)

B1: Labeled VEGF (ligand, UniProt P15692-4 27-191, looked up)
chain: APMAEGGGQNHHEVVKFMDVYQRSYCHPIETLVDIFQEYPDEIEYIFKPSCVPLMRCGGCCNDEGLECVPTEESNITMQIMRIKPHQGQHIGEMSFLQHNKCECRPKKDRARQENPCGPCSERRKHLFVQDPQTCKCSCKNTDSRCKARQLELNERTCRCDKPRR
modifications: labeled (label not stated)
B2: VEGF165 (expression plasmid of Houck et al.) (ligand, UniProt P15692-4 27-191, looked up)
chain: B1 chain
modifications: 35S-labeled amino acids in Example 4
notes: The background calls VEGF a homodimer
B3: Flt4/IgG (extracellular domain of the Flt4 receptor, amino acids 1-775, spliced to the Fc region of a human IgG heavy chain) (Fc fusion, UniProt P35916 25-775, looked up)
chain: YSMTPPTLNITEESHVIDTGDSLSISCRGQHPLEWAWPGAQEAPATGDKDSEDTGVVRDCEGTDARPYCKVLLLHEVHANDTGSYVCYYKYIKARIEGTTAASSYVFVRDFEQPFINKPDTLLVNRKDAMWVPCLVSIPGLNVTLRSQSSVLWPDGQEVVWDDRRGMLVSTPLLHDALYLQCETTWGDQDFLSNPFLVHITGNELYDIQLLPRKSLELLVGEKLVLNCTVWAEFNSGVTFDWDYPGKQAERGKWVPERRSQQTHTELSSILTIHNVSQHDLGSYVCKANNGIQRFRESTEVIVHENPFISVEWLKGPILEATAGDELVKLPVKLAAYPPPEFQWYKDGKALSGRHSPHALVLKEVTEASTGTYTLALWNSAAGLRRNISLELVVNVPPQIHEKEASSPSIYSRHSRQALTCTAYGVPLPLSIQWHWRPWTPCKMFAQRSLRRRQQQDLMPQCRDWRAVTTQDAVNPIESLDTWTEFVEGKNKTVSKLVIQNANVSAMYKCVVSNKVGQDERLIYFYVTTIPDGFTIESKPSEELLEGQPVLLSCQADSYKYEHLRWYRLNLSTLHDAHGNPLLLDCKNVHLFATPLAASLEEVAPGARHATLSLSIPRVAPEHEGHYVCEVQDRRSHDKHCHKKYLSVQALEAPRLTQNLTDLLVNVSDSLEMQCLVAGAHAPSIVWYKDERLLEEKSGVDLADSNQKLSIQRVREEDAGRYLCSVCNAKGCVNSSASVAVEGSEDKGSME
modifications: 125I-iodinated where used as the labeled form (Example 6)
notes: range 25-775; also called Flt4 receptor-IgG fusion; ^125I-Flt4/IgG; not shown: Fc region (CH2CH3, plasmid pBSSK-Fc) of a human IgG heavy chain
B4: VH1.4 gD fusion protein (herpes glycoprotein D sequence fused to the putative mature sequence of VRP, plasmid pRK.vh1.4.5) (ligand)
chain: KYALADASLKMADPNRFRGKDLPVLDQLLEGGAAHYALLPGPREAPAAAAAFESGLDLSDAEPDAGEATAYASKDLEEQLRSVSSVDELMTVLYPEYWKMYKCQLRKGGWQHNREQANLNSRTEETIKFAAAHTNTEILKSIDNEWRKTQCMPREVCIDVGKEFGVATNTFFKPPCVSVYRCGGCCNSEGLQCMNTSTSYLSKTLFEITVPLSQGPKPVTISFANHTSCRCMSKLDVYRQVHSIIRRSLPATLPQCQAANKTCPTNYMWNNHICRCLAQEDFMFSSDAGDDSTDGFHDICGPNKELDEETCQCVCRAGLRPASCGPHKELDRNSCQCVCKNKLFPSQCGANREFDENTCQCVCKRTCPRNQPLNPGKCACECTESPQKCLLKGKKFHHQTCSCYRRPCTNRQKACEPGFSYSEEVCRCVPSYWKRPQMS
notes: also called purified VRP; gD-VRP
B5: PlGF152 (expression plasmid of Park et al.) (ligand, UniProt P49763-3 19-170, looked up)
chain: LPAVPPQQWALSAGNGSSEVEVVPFQEVWGRSYCRALERLVDVVSEYPSEVEHMFSPSCVSLLRCTGCCGDENLHCVPVETANVTMQLLKIRSGDRPSYVELTFSQHVRCECRPLREKMKPERRRPKGRGKRRREKQRPTDCHLCGDAVPRR
modifications: 35S-labeled amino acids
notes: also called PIGF; placental growth factor
B6: human VEGF-related protein (VRP), expressed from cDNA clone VH1.4 (plasmid pRK.vh1.4.2) (ligand)
chain: GPREAPAAAAAFESGLDLSDAEPDAGEATAYASKDLEEQLRSVSSVDELMTVLYPEYWKMYKCQLRKGGWQHNREQANLNSRTEETIKFAAAHTNTEILKSIDNEWRKTQCMPREVCIDVGKEFGVATNTFFKPPCVSVYRCGGCCNSEGLQCMNTSTSYLSKTLFEITVPLSQGPKPVTISFANHTSCRCMSKLDVYRQVHSIIRRSLPATLPQCQAANKTCPTNYMWNNHICRCLAQEDFMFSSDAGDDSTDGFHDICGPNKELDEETCQCVCRAGLRPASCGPHKELDRNSCQCVCKNKLFPSQCGANREFDENTCQCVCKRTCPRNQPLNPGKCACECTESPQKCLLKGKKFHHQTCSCYRRPCTNRQKACEPGFSYSEEVCRCVPSYWKRPQMS
modifications: 35S-labeled amino acids in Example 4
notes: The cleavage site after amino acid 20 is predicted ('most likely'; cleavage after 15 or 16 is not excluded); Flt4/IgG precipitated bands of 53 kDa and 33 kDa, so the secreted protein may be further processed

Legend:
[1] = biological target: B3; assay: binding of labeled VEGF to receptor IgG
[2] = biological target: B3; assay: receptor IgG / protein A precipitation of 35S-labeled conditioned medium
[3] = biological target: B4; assay: competition of ^125I-Flt4/IgG binding to gD-VRP on 5B6 beads by increasing unlabeled Flt4/IgG
[4] = biological target: putative membrane-bound VRP (putative membrane-bound ligand) on human glioma cell line G61; assay: FACS, 70 nM receptor IgG on G61 cells, compared with Rse/IgG
[5] = biological target: B3; assay: ^125I-Flt4/IgG binding to gD-VRP captured on 5B6 glass beads, filtration and counting
Flk1/IgG = biological target: T1, Flk1/IgG (UniProt P35968 20-764, limits assumed); assay: receptor IgG / protein A precipitation of 35S-labeled conditioned medium
T1 construct: Construct known only by citation
T1 sequence (P35968 20-764 limits assumed): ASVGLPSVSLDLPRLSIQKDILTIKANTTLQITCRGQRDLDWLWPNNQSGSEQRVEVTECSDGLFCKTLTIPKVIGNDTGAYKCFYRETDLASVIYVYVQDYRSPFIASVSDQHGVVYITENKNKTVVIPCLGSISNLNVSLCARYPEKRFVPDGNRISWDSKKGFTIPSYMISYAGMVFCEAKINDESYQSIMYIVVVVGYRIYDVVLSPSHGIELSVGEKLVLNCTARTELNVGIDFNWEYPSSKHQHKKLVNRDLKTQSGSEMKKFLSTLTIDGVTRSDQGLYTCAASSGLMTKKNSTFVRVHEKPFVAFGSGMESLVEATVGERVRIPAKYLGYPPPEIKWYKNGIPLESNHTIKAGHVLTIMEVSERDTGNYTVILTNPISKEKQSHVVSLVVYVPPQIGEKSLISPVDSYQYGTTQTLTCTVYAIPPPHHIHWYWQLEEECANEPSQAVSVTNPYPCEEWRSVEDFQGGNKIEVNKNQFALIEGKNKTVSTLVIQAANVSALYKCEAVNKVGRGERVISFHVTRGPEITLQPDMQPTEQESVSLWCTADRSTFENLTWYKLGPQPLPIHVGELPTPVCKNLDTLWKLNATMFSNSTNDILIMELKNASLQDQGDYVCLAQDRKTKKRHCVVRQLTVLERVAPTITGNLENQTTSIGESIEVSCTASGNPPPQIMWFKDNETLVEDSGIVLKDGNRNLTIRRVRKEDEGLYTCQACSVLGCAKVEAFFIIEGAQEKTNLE

[6] = biological target: B3; assay: receptor IgG / protein A precipitation of 35S-labeled COS7 conditioned medium

**Q.** Does B1 bind [1]?
**A.** Result: no binding

**Q.** Does B2 bind [2]?
**A.** Result: no binding (tested: 3 µg of receptor IgG)

**Q.** B3 was tested. Which EC50 [3] did it give?
**A.** Its EC50 is about 0.7 nM.

**Q.** What about the “shift in peak fluorescence intensity” value [4] of the same binder?
**A.** The value was about 10 fold.

**Q.** Does B4 bind [5]?
**A.** Result: binds

**Q.** Does B5 bind (Flk1/IgG)?
**A.** Result: no binding (tested: 3 µg of receptor IgG)

**Q.** Does B5 bind [2]?
**A.** Result: no binding (tested: 3 µg of receptor IgG)

**Q.** Does B6 bind [6]?
**A.** Result: binds
